The supplement of paper PMC10567573

B1: ANKRD40 (parent)
chain: YQELLRVCCCELGVNPDQVEKIRK

Variants of: B1
Assay: protein stability index of a GFP-peptide fusion (GPS, HEK-293T) (PSI 1-6); higher = more stable
Conditions: c terminus: a fixed tail appended
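Further: lentivirally expressed fusions sorted by FACS into six bins by GFP to DsRed ratio, PSI derived from sequencing read proportions per bin multiplied by bin number.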

Row | Variant | protein stability index
1 | YQELLQVCCCELGVNPDQVEKIRK | 2.26
2 | YQELLSVCCCELGVNPDQVEKIRK | 2.03
3 | YQELLTVCCCELGVNPDQVEKIRK | 1.54
4 | YQELLWVCCCELGVNPDQVEKIRK | 1.58
5 | YQELLYVCCCELGVNPDQVEKIRK | 2.18
6 | YQELLRACCCELGVNPDQVEKIRK | 2.15
7 | YQELLRCCCCELGVNPDQVEKIRK | 2.1
8 | YQELLRDCCCELGVNPDQVEKIRK | 2.53
9 | YQELLRECCCELGVNPDQVEKIRK | 2.28
10 | YQELLRFCCCELGVNPDQVEKIRK | 1.61
11 | YQELLRGCCCELGVNPDQVEKIRK | 1.48
12 | YQELLRHCCCELGVNPDQVEKIRK | 2.59
13 | YQELLRICCCELGVNPDQVEKIRK | 2.03
14 | YQELLRKCCCELGVNPDQVEKIRK | 2.23
15 | YQELLRLCCCELGVNPDQVEKIRK | 1.46
16 | YQELLRNCCCELGVNPDQVEKIRK | 1.96
17 | YQELLRPCCCELGVNPDQVEKIRK | 2.5
18 | YQELLRQCCCELGVNPDQVEKIRK | 1.97
19 | YQELLRRCCCELGVNPDQVEKIRK | 1.41
20 | YQELLRYCCCELGVNPDQVEKIRK | 1.79
21 | YQELLRVACCELGVNPDQVEKIRK | 3.16
22 | YQELLRVDCCELGVNPDQVEKIRK | 3.81
23 | YQELLRVECCELGVNPDQVEKIRK | 3.56
24 | YQELLRVFCCELGVNPDQVEKIRK | 1.44

Row | Variant | protein stability index
25 | YQELLRVGCCELGVNPDQVEKIRK | 2.8
26 | YQELLRVHCCELGVNPDQVEKIRK | 2.84
27 | YQELLRVICCELGVNPDQVEKIRK | 2.38
28 | YQELLRVKCCELGVNPDQVEKIRK | 2.19
29 | YQELLRVLCCELGVNPDQVEKIRK | 2.24
30 | YQELLRVMCCELGVNPDQVEKIRK | 2.09
31 | YQELLRVNCCELGVNPDQVEKIRK | 3.48
32 | YQELLRVPCCELGVNPDQVEKIRK | 2.12
33 | YQELLRVQCCELGVNPDQVEKIRK | 3.52
34 | YQELLRVRCCELGVNPDQVEKIRK | 2.21
35 | YQELLRVSCCELGVNPDQVEKIRK | 3.33
36 | YQELLRVTCCELGVNPDQVEKIRK | 3.53
37 | YQELLRVWCCELGVNPDQVEKIRK | 2.02
38 | YQELLRVYCCELGVNPDQVEKIRK | 2.09
39 | YQELLRVCACELGVNPDQVEKIRK | 2.61
40 | YQELLRVCDCELGVNPDQVEKIRK | 3.15
41 | YQELLRVCECELGVNPDQVEKIRK | 2.35
42 | YQELLRVCFCELGVNPDQVEKIRK | 3.38
43 | YQELLRVCGCELGVNPDQVEKIRK | 3.22
44 | YQELLRVCHCELGVNPDQVEKIRK | 2.15
45 | YQELLRVCICELGVNPDQVEKIRK | 1.06
46 | YQELLRVCKCELGVNPDQVEKIRK | 2.23
47 | YQELLRVCLCELGVNPDQVEKIRK | 1.55
48 | YQELLRVCMCELGVNPDQVEKIRK | 1.81

Row | Variant | protein stability index
49 | YQELLRVCNCELGVNPDQVEKIRK | 2.15
50 | YQELLRVCPCELGVNPDQVEKIRK | 2.59
51 | YQELLRVCQCELGVNPDQVEKIRK | 2.27
52 | YQELLRVCRCELGVNPDQVEKIRK | 2.31
53 | YQELLRVCSCELGVNPDQVEKIRK | 2.14
54 | YQELLRVCTCELGVNPDQVEKIRK | 2.23
55 | YQELLRVCVCELGVNPDQVEKIRK | 1.82
56 | YQELLRVCWCELGVNPDQVEKIRK | 2.23
57 | YQELLRVCYCELGVNPDQVEKIRK | 2.66
58 | YQELLRVCCFELGVNPDQVEKIRK | 1.68
59 | YQELLRVCCGELGVNPDQVEKIRK | 2.22
60 | YQELLRVCCHELGVNPDQVEKIRK | 2.63
61 | YQELLRVCCIELGVNPDQVEKIRK | 1.63
62 | YQELLRVCCLELGVNPDQVEKIRK | 1.86
63 | YQELLRVCCMELGVNPDQVEKIRK | 2.08
64 | YQELLRVCCPELGVNPDQVEKIRK | 2.31
65 | YQELLRVCCQELGVNPDQVEKIRK | 2.92
66 | YQELLRVCCRELGVNPDQVEKIRK | 2.35
67 | YQELLRVCCSELGVNPDQVEKIRK | 2.24
68 | YQELLRVCCTELGVNPDQVEKIRK | 2.04
69 | YQELLRVCCVELGVNPDQVEKIRK | 2.1
70 | YQELLRVCCWELGVNPDQVEKIRK | 1.81
71 | YQELLRVCCCALGVNPDQVEKIRK | 1.32
72 | YQELLRVCCCCLGVNPDQVEKIRK | 2.62

Row | Variant | protein stability index
73 | YQELLRVCCCDLGVNPDQVEKIRK | 1.89
74 | YQELLRVCCCFLGVNPDQVEKIRK | 2.19
75 | YQELLRVCCCGLGVNPDQVEKIRK | 1.86
76 | YQELLRVCCCHLGVNPDQVEKIRK | 1.79
77 | YQELLRVCCCILGVNPDQVEKIRK | 1.49
78 | YQELLRVCCCKLGVNPDQVEKIRK | 2.89
79 | YQELLRVCCCLLGVNPDQVEKIRK | 2
80 | YQELLRVCCCMLGVNPDQVEKIRK | 2.03
81 | YQELLRVCCCNLGVNPDQVEKIRK | 1.76
82 | YQELLRVCCCPLGVNPDQVEKIRK | 1.94
83 | YQELLRVCCCRLGVNPDQVEKIRK | 1.32
84 | YQELLRVCCCSLGVNPDQVEKIRK | 1.22
85 | YQELLRVCCCTLGVNPDQVEKIRK | 1.98
86 | YQELLRVCCCVLGVNPDQVEKIRK | 1.56
87 | YQELLRVCCCWLGVNPDQVEKIRK | 1
88 | YQELLRVCCCYLGVNPDQVEKIRK | 1.27
89 | YQELLRVCCCEAGVNPDQVEKIRK | 1.78
90 | YQELLRVCCCECGVNPDQVEKIRK | 2.03
91 | YQELLRVCCCEDGVNPDQVEKIRK | 2.64
92 | YQELLRVCCCEEGVNPDQVEKIRK | 2.75
93 | YQELLRVCCCEFGVNPDQVEKIRK | 2.21
94 | YQELLRVCCCEGGVNPDQVEKIRK | 2.31
95 | YQELLRVCCCEHGVNPDQVEKIRK | 1.88
96 | YQELLRVCCCEIGVNPDQVEKIRK | 2.21

Row | Variant | protein stability index
97 | YQELLRVCCCEKGVNPDQVEKIRK | 2.49
98 | YQELLRVCCCEMGVNPDQVEKIRK | 2.05
99 | YQELLRVCCCENGVNPDQVEKIRK | 2.86
100 | YQELLRVCCCEPGVNPDQVEKIRK | 2.55
101 | YQELLRVCCCEQGVNPDQVEKIRK | 2.81
102 | YQELLRVCCCERGVNPDQVEKIRK | 1.7
103 | YQELLRVCCCESGVNPDQVEKIRK | 2.15
104 | YQELLRVCCCEVGVNPDQVEKIRK | 1.64
105 | YQELLRVCCCEWGVNPDQVEKIRK | 1.65
106 | YQELLRVCCCEYGVNPDQVEKIRK | 2.24
107 | YQELLRVCCCELAVNPDQVEKIRK | 2.08
108 | YQELLRVCCCELCVNPDQVEKIRK | 1.63
109 | YQELLRVCCCELDVNPDQVEKIRK | 2.19
110 | YQELLRVCCCELEVNPDQVEKIRK | 2.42
111 | YQELLRVCCCELFVNPDQVEKIRK | 1.55
112 | YQELLRVCCCELHVNPDQVEKIRK | 1.79
113 | YQELLRVCCCELIVNPDQVEKIRK | 1.78
114 | YQELLRVCCCELKVNPDQVEKIRK | 1.62
115 | YQELLRVCCCELLVNPDQVEKIRK | 1.62
116 | YQELLRVCCCELMVNPDQVEKIRK | 2.01
117 | YQELLRVCCCELNVNPDQVEKIRK | 1.78
118 | YQELLRVCCCELPVNPDQVEKIRK | 2.06
119 | YQELLRVCCCELQVNPDQVEKIRK | 1.57
120 | YQELLRVCCCELRVNPDQVEKIRK | 1.66

Row | Variant | protein stability index
121 | YQELLRVCCCELSVNPDQVEKIRK | 3.16
122 | YQELLRVCCCELTVNPDQVEKIRK | 2.13
123 | YQELLRVCCCELVVNPDQVEKIRK | 1.71
124 | YQELLRVCCCELWVNPDQVEKIRK | 2.84
125 | YQELLRVCCCELYVNPDQVEKIRK | 1.05
126 | YQELLRVCCCELGANPDQVEKIRK | 1.99
127 | YQELLRVCCCELGCNPDQVEKIRK | 2.08
128 | YQELLRVCCCELGDNPDQVEKIRK | 2.88
129 | YQELLRVCCCELGENPDQVEKIRK | 2.72
130 | YQELLRVCCCELGFNPDQVEKIRK | 2.27
131 | YQELLRVCCCELGHNPDQVEKIRK | 2.22
132 | YQELLRVCCCELGINPDQVEKIRK | 1.61
133 | YQELLRVCCCELGLNPDQVEKIRK | 2.18
134 | YQELLRVCCCELGMNPDQVEKIRK | 2.07
135 | YQELLRVCCCELGNNPDQVEKIRK | 1.85
136 | YQELLRVCCCELGPNPDQVEKIRK | 2.02
137 | YQELLRVCCCELGQNPDQVEKIRK | 1.72
138 | YQELLRVCCCELGRNPDQVEKIRK | 1.5
139 | YQELLRVCCCELGSNPDQVEKIRK | 2.32
140 | YQELLRVCCCELGTNPDQVEKIRK | 1.99
141 | YQELLRVCCCELGYNPDQVEKIRK | 2.13
142 | YQELLRVCCCELGVAPDQVEKIRK | 1.96
143 | YQELLRVCCCELGVCPDQVEKIRK | 1.63
144 | YQELLRVCCCELGVDPDQVEKIRK | 2.08

Row | Variant | protein stability index
145 | YQELLRVCCCELGVEPDQVEKIRK | 2.27
146 | YQELLRVCCCELGVFPDQVEKIRK | 1.45
147 | YQELLRVCCCELGVGPDQVEKIRK | 1.26
148 | YQELLRVCCCELGVHPDQVEKIRK | 2.75
149 | YQELLRVCCCELGVIPDQVEKIRK | 1.37
150 | YQELLRVCCCELGVKPDQVEKIRK | 2.08
151 | YQELLRVCCCELGVLPDQVEKIRK | 1.39
152 | YQELLRVCCCELGVMPDQVEKIRK | 2.21
153 | YQELLRVCCCELGVPPDQVEKIRK | 2.8
154 | YQELLRVCCCELGVQPDQVEKIRK | 1.62
155 | YQELLRVCCCELGVRPDQVEKIRK | 2.21
156 | YQELLRVCCCELGVSPDQVEKIRK | 2.1
157 | YQELLRVCCCELGVTPDQVEKIRK | 3.74
158 | YQELLRVCCCELGVYPDQVEKIRK | 1.78
159 | YQELLRVCCCELGVNADQVEKIRK | 1.81
160 | YQELLRVCCCELGVNCDQVEKIRK | 2.52
161 | YQELLRVCCCELGVNDDQVEKIRK | 2.86
162 | YQELLRVCCCELGVNEDQVEKIRK | 2.14
163 | YQELLRVCCCELGVNFDQVEKIRK | 1.14
164 | YQELLRVCCCELGVNHDQVEKIRK | 1.43
165 | YQELLRVCCCELGVNIDQVEKIRK | 1.52
166 | YQELLRVCCCELGVNKDQVEKIRK | 2.26
167 | YQELLRVCCCELGVNLDQVEKIRK | 2.11
168 | YQELLRVCCCELGVNMDQVEKIRK | 1.5

Row | Variant | protein stability index
169 | YQELLRVCCCELGVNNDQVEKIRK | 2.4
170 | YQELLRVCCCELGVNQDQVEKIRK | 2.5
171 | YQELLRVCCCELGVNRDQVEKIRK | 2.41
172 | YQELLRVCCCELGVNSDQVEKIRK | 2.06
173 | YQELLRVCCCELGVNTDQVEKIRK | 1.29
174 | YQELLRVCCCELGVNYDQVEKIRK | 1.99
175 | YQELLRVCCCELGVNPCQVEKIRK | 2.01
176 | YQELLRVCCCELGVNPFQVEKIRK | 1.87
177 | YQELLRVCCCELGVNPGQVEKIRK | 2.42
178 | YQELLRVCCCELGVNPIQVEKIRK | 1.69
179 | YQELLRVCCCELGVNPKQVEKIRK | 1.69
180 | YQELLRVCCCELGVNPLQVEKIRK | 1.59
181 | YQELLRVCCCELGVNPMQVEKIRK | 1.56
182 | YQELLRVCCCELGVNPNQVEKIRK | 2.11
183 | YQELLRVCCCELGVNPQQVEKIRK | 2.94
184 | YQELLRVCCCELGVNPRQVEKIRK | 2.04
185 | YQELLRVCCCELGVNPSQVEKIRK | 2.4
186 | YQELLRVCCCELGVNPTQVEKIRK | 2.42
187 | YQELLRVCCCELGVNPVQVEKIRK | 2.73
188 | YQELLRVCCCELGVNPWQVEKIRK | 2.12
